Laboratory results as given in patent US11306156.
Each block holds one substance with its values, some of them ahead of it.

What was measured:
[1] = biological target: D3H44 Fab heavy chain L124E_L143E_K145M, C-terminal ABD2-His6 tag; assay: LCCA co-expression, SPR tag read-out; DNA 1:3 norm. to 1:1; competing light chain m8
[2] = biological target: D3H44 Fab heavy chain L124E_L143E_K145T, C-terminal ABD2-His6 tag; assay: as above
[3] = biological target: D3H44 Fab heavy chain L124R_S186K, C-terminal ABD2-His6 tag; assay: as above
[4] = biological target: D3H44 Fab heavy chain L124E_L143E_K145T, C-terminal ABD2-His6 tag; assay: LCCA (co-expression, SPR read-out of light chain tags), L1:L2 DNA 1:3 normalised to 1:1; competitor m10
[5] = biological target: D3H44 Fab heavy chain L124R_S186R, C-terminal ABD2-His6 tag; assay: as above
[6] = biological target: D3H44 Fab heavy chain L124E_L143D_K145T, C-terminal ABD2-His6 tag; assay: LCCA (co-expression, SPR read-out of light chain tags), L1:L2 DNA 1:3 normalised to 1:1; competitor m11
[7] = biological target: D3H44 Fab heavy chain L124R_S186K, C-terminal ABD2-His6 tag; assay: as above
[8] = biological target: D3H44 Fab heavy chain L124E_L143D_K145M, C-terminal ABD2-His6 tag; assay: LCCA set 9199 (co-expression; SPR read-out of light-chain tags; L1:L2 DNA 1:3, normalized to 1:1); competing light chain m13
[9] = biological target: D3H44 Fab heavy chain L124E_L143D_K145T, C-terminal ABD2-His6 tag; assay: LCCA set 9217 (co-expression; SPR read-out of light-chain tags; L1:L2 DNA 1:3, normalized to 1:1); competing light chain m10
[10] = biological target: D3H44 Fab heavy chain L124E_L143E_K145M, C-terminal ABD2-His6 tag; assay: LCCA set 9253 (co-expression; SPR read-out of light-chain tags; L1:L2 DNA 1:3, normalized to 1:1); competing light chain m11
[11] = biological target: D3H44 Fab heavy chain L124R_S186K, C-terminal ABD2-His6 tag; assay: LCCA set 9473 (co-expression; SPR read-out of light-chain tags; L1:L2 DNA 1:3, normalized to 1:1); competing light chain m10
[12] = biological target: D3H44 Fab heavy chain L124R_S186K, C-terminal ABD2-His6 tag; assay: LCCA set 9484 (co-expression; SPR read-out of light-chain tags; L1:L2 DNA 1:3, normalized to 1:1); competing light chain m13
[13] = biological target: D3H44 Fab heavy chain L124R_S186R, C-terminal ABD2-His6 tag; assay: LCCA set 9526 (co-expression; SPR read-out of light-chain tags; L1:L2 DNA 1:3, normalized to 1:1); competing light chain m11
[14] = biological target: D3H44 Fab heavy chain L124E_L143D_K145T, C-terminal ABD2-His6 tag; assay: LCCA co-expression, SPR tag read-out; DNA 1:3 norm. to 1:1; competing light chain m11
[15] = biological target: D3H44 Fab heavy chain L124E_L143E_K145M, C-terminal ABD2-His6 tag; assay: as above
[16] = biological target: D3H44 Fab heavy chain L124E_L143E_K145T, C-terminal ABD2-His6 tag; assay: as above
[17] = biological target: D3H44 Fab heavy chain L124R_Q179K, C-terminal ABD2-His6 tag; assay: as above
[18] = biological target: D3H44 Fab heavy chain L124E_L143E_K145M, C-terminal ABD2-His6 tag; assay: LCCA co-expression, SPR tag read-out; DNA 1:3 norm. to 1:1; competing light chain m12
[19] = biological target: D3H44 Fab heavy chain L124E_L143E_K145T, C-terminal ABD2-His6 tag; assay: as above
[20] = biological target: D3H44 Fab heavy chain L124R_Q179K, C-terminal ABD2-His6 tag; assay: as above
[21] = biological target: D3H44 Fab heavy chain L124E_L143E_K145T, C-terminal ABD2-His6 tag; assay: LCCA co-expression, SPR tag read-out; DNA 1:3 norm. to 1:1; competing light chain m14
[22] = biological target: D3H44 Fab heavy chain L124R_Q179K, C-terminal ABD2-His6 tag; assay: as above
[23] = biological target: D3H44 Fab heavy chain L124E_L143D_K145M, C-terminal ABD2-His6 tag; assay: LCCA (co-expression, SPR read-out of light chain tags), L1:L2 DNA 1:3 normalised to 1:1; competitor m13
[24] = biological target: D3H44 Fab heavy chain L124R_Q179K, C-terminal ABD2-His6 tag; assay: as above
[25] = biological target: D3H44 Fab heavy chain L124E_L143D_K145M, C-terminal ABD2-His6 tag; assay: LCCA (co-expression, SPR read-out of light chain tags), L1:L2 DNA 1:3 normalised to 1:1; competitor m14
[26] = biological target: D3H44 Fab heavy chain L124E_L143D_K145T, C-terminal ABD2-His6 tag; assay: as above
[27] = biological target: D3H44 Fab heavy chain L124R_Q179K, C-terminal ABD2-His6 tag; assay: as above
[28] = biological target: D3H44 Fab heavy chain L124E_L143E_K145T, C-terminal ABD2-His6 tag; assay: LCCA set 9271 (co-expression; SPR read-out of light-chain tags; L1:L2 DNA 1:3, normalized to 1:1); competing light chain m17
[29] = biological target: D3H44 Fab heavy chain L124R_D146N_Q179K, C-terminal ABD2-His6 tag; assay: LCCA set 9350 (co-expression; SPR read-out of light-chain tags; L1:L2 DNA 1:3, normalized to 1:1); competing light chain m17
[30] = biological target: D3H44 Fab heavy chain L124R_S186R, C-terminal ABD2-His6 tag; assay: LCCA co-expression, SPR tag read-out; DNA 1:3 norm. to 1:1; competing light chain m8
[31] = biological target: D3H44 Fab heavy chain L124E_L143E_K145M, C-terminal ABD2-His6 tag; assay: LCCA (co-expression, SPR read-out of light chain tags), L1:L2 DNA 1:3 normalised to 1:1; competitor m10
[32] = biological target: D3H44 Fab heavy chain L124R_S186K, C-terminal ABD2-His6 tag; assay: as above
[33] = biological target: D3H44 Fab heavy chain L124E_L143D_K145M, C-terminal ABD2-His6 tag; assay: LCCA (co-expression, SPR read-out of light chain tags), L1:L2 DNA 1:3 normalised to 1:1; competitor m11
[34] = biological target: D3H44 Fab heavy chain L124R_S186R, C-terminal ABD2-His6 tag; assay: as above
[35] = biological target: D3H44 Fab heavy chain L124E_L143D_K145M, C-terminal ABD2-His6 tag; assay: LCCA set 9176 (co-expression; SPR read-out of light-chain tags; L1:L2 DNA 1:3, normalized to 1:1); competing light chain m10
[36] = biological target: D3H44 Fab heavy chain L124E_L143D_K145M, C-terminal ABD2-His6 tag; assay: LCCA set 9196 (co-expression; SPR read-out of light-chain tags; L1:L2 DNA 1:3, normalized to 1:1); competing light chain m13
[37] = biological target: D3H44 Fab heavy chain L124E_L143D_K145T, C-terminal ABD2-His6 tag; assay: LCCA set 9214 (co-expression; SPR read-out of light-chain tags; L1:L2 DNA 1:3, normalized to 1:1); competing light chain m10
[38] = biological target: D3H44 Fab heavy chain L124E_L143E_K145M, C-terminal ABD2-His6 tag; assay: LCCA set 9257 (co-expression; SPR read-out of light-chain tags; L1:L2 DNA 1:3, normalized to 1:1); competing light chain m10
[39] = biological target: D3H44 Fab heavy chain L124R_S186K, C-terminal ABD2-His6 tag; assay: LCCA set 9451 (co-expression; SPR read-out of light-chain tags; L1:L2 DNA 1:3, normalized to 1:1); competing light chain m10
[40] = biological target: D3H44 Fab heavy chain L124R_S186K, C-terminal ABD2-His6 tag; assay: LCCA set 9461 (co-expression; SPR read-out of light-chain tags; L1:L2 DNA 1:3, normalized to 1:1); competing light chain m13
[41] = biological target: D3H44 Fab heavy chain L124R_S186R, C-terminal ABD2-His6 tag; assay: LCCA set 9505 (co-expression; SPR read-out of light-chain tags; L1:L2 DNA 1:3, normalized to 1:1); competing light chain m10

H1L1:H1L2 normalized median ratio (% (ratio normalized to 100)) [1]: 5
H1L1:H1L2 normalized median ratio (% (ratio normalized to 100)) [2]: 4
H2L2:H2L1 normalized median ratio (% (ratio normalized to 100)) [3]: 90
H1L1:H1L2 normalized median ratio [4]: 4%
H2L2:H2L1 normalized median ratio [5]: 80%
H1L1:H1L2 normalized median ratio [6]: 11%
H2L2:H2L1 normalized median ratio [7]: 92%
H1L1:H1L2 normalized median ratio (H1L2 part) [8]: 13%
H1L1:H1L2 normalized median ratio (H1L2 part) [9]: 18%
H1L1:H1L2 normalized median ratio (H1L2 part) [10]: 5%
H2L2:H2L1 normalized median ratio (H2L2 part) [11]: 93%
H2L2:H2L1 normalized median ratio (H2L2 part) [12]: 92%
H2L2:H2L1 normalized median ratio (H2L2 part) [13]: 80%
Substance: D3H44 light chain V133G_S176D_T178D_T180E, N-terminal HA or FLAG tag

H1L1:H1L2 normalized median ratio (% (ratio normalized to 100)) [14]: 94
H1L1:H1L2 normalized median scalar value ln(r1/f1) [14]: 2.69
H1L1:H1L2 normalized median ratio (% (ratio normalized to 100)) [15]: 94
H1L1:H1L2 normalized median scalar value ln(r1/f1) [15]: 2.72
H1L1:H1L2 normalized median ratio (% (ratio normalized to 100)) [16]: 95
H1L1:H1L2 normalized median scalar value ln(r1/f1) [16]: 3
H2L2:H2L1 normalized median ratio (% (ratio normalized to 100)) [17]: 8
H1L1:H1L2 normalized median ratio (% (ratio normalized to 100)) [18]: 92
H1L1:H1L2 normalized median ratio (% (ratio normalized to 100)) [19]: 95
H1L1:H1L2 normalized median scalar value ln(r1/f1) [19]: 2.92
H2L2:H2L1 normalized median ratio (% (ratio normalized to 100)) [20]: 8
H1L1:H1L2 normalized median ratio (% (ratio normalized to 100)) [21]: 94
H2L2:H2L1 normalized median ratio (% (ratio normalized to 100)) [22]: 10
H1L1:H1L2 normalized median ratio [23]: 91%
H1L1:H1L2 normalized median scalar value ln(r1/f1) [23]: 2.36
H2L2:H2L1 normalized median ratio [24]: 8%
H1L1:H1L2 normalized median ratio [25]: 92%
H1L1:H1L2 normalized median ratio [26]: 92%
H2L2:H2L1 normalized median ratio [27]: 8%
H1L1:H1L2 normalized median ratio (H1L1 part) [28]: 95%
H1L1:H1L2 normalized median scalar value ln(r1/f1) [28]: 2.92
H2L2:H2L1 normalized median ratio (H2L1 part) [29]: 18%
Substance: D3H44 light chain Q124K_V133G_Q160K_S176R, N-terminal HA or FLAG tag

H1L1:H1L2 normalized median ratio (% (ratio normalized to 100)) [1]: 5
H1L1:H1L2 normalized median ratio (% (ratio normalized to 100)) [2]: 4
H2L2:H2L1 normalized median ratio (% (ratio normalized to 100)) [30]: 88
H1L1:H1L2 normalized median ratio [31]: 5%
H1L1:H1L2 normalized median ratio [4]: 4%
H2L2:H2L1 normalized median ratio [32]: 82%
H1L1:H1L2 normalized median ratio [33]: 12%
H1L1:H1L2 normalized median ratio [6]: 14%
H2L2:H2L1 normalized median ratio [34]: 94%
H1L1:H1L2 normalized median ratio (H1L2 part) [35]: 17%
H1L1:H1L2 normalized median ratio (H1L2 part) [36]: 12%
H1L1:H1L2 normalized median ratio (H1L2 part) [37]: 15%
H1L1:H1L2 normalized median ratio (H1L2 part) [38]: 16%
H2L2:H2L1 normalized median ratio (H2L2 part) [39]: 93%
H2L2:H2L1 normalized median ratio (H2L2 part) [40]: 89%
H2L2:H2L1 normalized median ratio (H2L2 part) [41]: 94%
Substance: D3H44 light chain Q124E_V133G_S176D_T178D_T180E, N-terminal HA or FLAG tag
